Measurements published in US5785967.

Legend:
[1] = target: LIF receptors on the surface of DA-1 cells; assay: 125I-LIF binding to intact DA-1 cells, phthalate oil separation
[2] = target: Human LIF-R encoded by cDNA clone 65 (pHLIFR-65), expressed on transfected COS-7 cells (human); assay: 125I-LIF binding to COS cells transfected with LIF-R cDNA clone 65, Scatchard analysis
[3] = target: Recombinant human leukemia inhibitory factor (LIF) (human) (UniProt P15018); assay: Scatchard analysis, LIF-R/Fc on Protein G Sepharose beads with serial dilutions of 125I-LIF

| Ka [1] [M⁻¹] | Ka [2] [M⁻¹] | Ka [3] [M⁻¹] | Substance |
| --- | --- | --- | --- |
| 7.4e+08 | > 1e+09 | – | Recombinant human leukemia inhibitory factor (LIF) (from UniProt P15018) (ligand) |
| – | – | 9e+08 | Soluble human LIF-R/Fc homodimer (Fc fusion) |
